Source: US20080220450A1, “Population Based Prediction Methods for Immune Response Determinations and Methods for Verifying Immunological Response Data” (Danisco US, Inc., Genencor Division, priority 2004, published 2008)

System: CD4+ T-cells and dendritic cells
Test: I-MUNE assay: CD4+ T-cell proliferation to 15-mer peptide sets presented by dendritic cells
Format: cell-based, human
Design: Structure Value: scale not given here
Conditions: for Response/Peptide: SI>2.95; for Responses per peptide: positive response SI of 2.95 or greater, community donors; for background response: average percent responders per peptide, +/− sd where given; for Prominent responses noted at amino acids: peptide regions of the protein
Description: All peptides were obtained from a commercial source (Mimotopes, San Diego, C-A). For the I-MUNE® assay system described herein, 15-mer peptides offset by 3 amino acids that described the entire sequence of the proteins of interest were synthesized in a multipin format (See, Maeji et al., J. Immunol. Meth., 134:23-33 [1990]). Peptides were resuspended in DMSO at approximately 1 to 2 mg/ml, and stored at −70° C. prior to use. Each peptide was tested at least in duplicate, although for small peptide sets (e.g., Ber e 1), the peptides were routinely tested in triplicate.
Volunteer donor human blood buffy coat samples were obtained from two commercial sources (Stanford Blood Center, Palo Alto, Calif., and the Sacramento Medical Foundation, Sacramento, Calif.). Buffy coat samples were further purified by density separation. Each sample was HLA typed for HLA-DR and HLA-DQ using a commercial PCR-based kit (Bio-Synthesis).
Monocytes were purified by adherence to plastic in AIM V medium (Gibco/Life Technologies). Adherent cells were cultured in AIM V media containing 500 units/ml of recombinant human IL-4 (Endogen) and 800 units/ml recombinant human GM-CSF (Endogen) for 5 days. On day 5, recombinant human IL-1α (Endogen) and recombinant human TNF-α (Endogen) were added to 50 units/ml and 0.2 units/ml, respectively. On day 7, the fully matured dendritic cells were treated with 50 μg/ml mitomycin C (Sigma) for 1 hour at 37° C. Treated dendritic cells were dislodged with 50 mM EDTA in PBS, washed in AIM V medium, counted, and resuspended in AIM V media at 2×10^5 cells/ml.
CD4^+ T-cells were purified by negative selection from frozen aliquots of human peripheral blood mononuclear cells (PBMC) using Cellect CD4 columns (Cedarlane). […] CD4^+ T-cells were resuspended in AIM V media at 2×10^6 cells per ml.
CD4^+ T-cells and dendritic cells were plated in round-bottomed 96 well format plates at 100 μl of each cell mix per well. Peptide was added to a final concentration of approximately 5 ug/ml in 0.25-0.5% DMSO. Control wells contained 0.5% DMSO without added peptide. Each peptide was tested in duplicate. Cultures were incubated at 37° C., in 5% CO2 for 5 days. On day 5, 0.5 uCi of tritiated thymidine (NEN DuPont) was added to each well. On day 6, the cultures were harvested onto glass fiber mats using a TomTec manual harvester (TomTec), then processed for scintillation counting. Proliferation was assessed by determining the average counts per minute (CPM) value for each set of duplicate wells (TriLux Beta). This method is also described in U.S. Pat. No. 6,218,165 and Stickler et al., J. Immunother. 23: 654-660 (2000), both of which are herein incorporated by reference.
For each individual buffy coat sample, the average CPM values obtained in the I-MUNE® assay for all of the peptides were analyzed. The average CPM values for each peptide were divided by the average CPM value for the control (DMSO only) wells to determine the “stimulation index” (SI). Donors were tested with each peptide set until an average of at least two responses per peptide were compiled. The data for each protein was graphed showing the percent responders to each peptide within the set. A positive response was collated if the SI value was equal to or greater than 2.95. This value was chosen as it approximates a difference of three standard deviations in a normal population distribution. For each protein assessed, positive responses to individual peptides by individual donors were compiled. To determine the background response for a given protein, the percent responders for each peptide in the set were averaged and a standard deviation was calculated. SI values for each donor were compiled for each peptide set, and the percent of responders reported.

[1] = Table 3, Stanford and Sacramento donors
[2] = Table 1, from compiled responses

Row | Molecule | Background % (Table 3) [%] | Response/Peptide (Table 3) | Structure Value [1] | Background +/− sd (Table 5, background response value) | Responses/peptide found (Table 5, determined experimentally) | Number of epitope regions (Table 1) | Structure Value [2] | Responses per peptide (Table 1) | Prominent Epitope (Table 4, number of prominent epitopes) | Structure Value (Table 4, parent, dataset of 113 individuals) | SIV (structure index value) (Table 21, parent, I-MUNE assay data) | background response | Structure Value (compiled responses) | Prominent responses noted at amino acids
1 | sTNFR1: soluble tumor necrosis factor receptor 1 (protein, UniProt P19438 30-211, looked up, extracellular domain) extracellular domain: LVPHLGDREKRDSVCPQGKYIHPQNNSICCTKCHKGTYLYNDCPGPGQDTDCRECESGSFTASENHLRHCLSCSKCRKEMGQVEISSCTVDRDTVCGCRKNQYRHYWSENLFQCFNCSLCLNGTVHLSCQEKQNTVCTCHAGFFLRENECVSCSNCKKSLECTKLCLPQIENVKGTEDSGTT | 4.2 | 2.9 | 0.47 | 2.23 +/− 1.95 | 1.54 |  |  |  |  |  |  |  |  | 
2 | BPN′ Y217L: B. amyloliquifaciens subtilisin BPN′ Y217L, Swissprot accession number P00782 (protein, UniProt P00782 108-382, looked up, variant Y217L) Subtilisin BPN': AQSVPYGVSQIKAPALHSQGYTGSNVKVAVIDSGIDSSHPDLKVAGGASMVPSETNPFQDNNSHGTHVAGTVAALNNSIGVLGVAPSASLYAVKVLGADGSGQYSWIINGIEWAIANNMDVINMSLGGPSGSAALKAAVDKAVASGVVVVAAAGNEGTSGSSSTVGYPGKYPSVIAVGAVDSSNQRASFSSVGPELDVMAPGVSIQSTLPGNKYGALNGTSMASPHVAGAAALILSKHPNWTNTQVRSSLENTTTKLGDSFYYGKGLINVQAAAQ | 3.65 | 3.61 | 0.65 |  |  | 2 | 0.53 | 3.65 | 2 | 0.53 | 0.53 | 3.62% | 0.53 | 
3 | Amylase: Bacillus licheniformis alpha amylase, industrial enzyme, Swissprot accession number P06278 (protein, UniProt P06278 30-512, looked up) Alpha-amylase: ANLNGTLMQYFEWYMPNDGQHWKRLQNDSAYLAEHGITAVWIPPAYKGTSQADVGYGAYDLYDLGEFHQKGTVRTKYGTKGELQSAIKSLHSRDINVYGDVVINHKGGADATEDVTAVEVDPADRNRVISGEHRIKAWTHFHFPGRGSTYSDFKWHWYHFDGTDWDESRKLNRIYKFQGKAWDWEVSNENGNYDYLMYADIDYDHPDVAAEIKRWGTWYANELQLDGFRLDAVKHIKFSFLRDWVNHVREKTGKEMFTVAEYWQNDLGALENYLNKTNFNHSVFDVPLHYQFHAASTQGGGYDMRKLLNSTVVSKHPLKAVTFVDNHDTQPGQSLESTVQTWFKPLAYAFILTRESGYPQVFYGDMYGTKGDSQREIPALKHKIEPILKARKQYAYGAQHDYFDHHDIVGWTREGDSSVANSGLAALITDGPGGAKRMYVGRQNAGETWHDITGNRSEPVVINSEGWGEFHVNGGSVSIYVQR | 2.79 | 2.29 | 0.81 |  |  | 3 | 0.81 | 2.29 |  |  |  | 2.80+/−3.69% | 0.81 | 
4 | B. lentus subtilisin: Bacillus lentus subtilisin, industrial protease, Swissprot accession number P29600 (protein, UniProt P29600 1-269, looked up) Subtilisin Savinase: AQSVPWGISRVQAPAAHNRGLTGSGVKVAVLDTGISTHPDLNIRGGASFVPGEPSTQDGNGHGTHVAGTIAALNNSIGVLGVAPSAELYAVKVLGASGSGSVSSIAQGLEWAGNNGMHVANLSLGSPSPSATLEQAVNSATSRGVLVVAASGNSGAGSISYPARYANAMAVGATDQNNNRASFSQYGAGLDIVAPGVNVQSTYPGSTYASLNGTSMATPHVAGAAALVKQKNPSWSNVQIRNHLKNTATSLGSTNLYGSGLVNAEAATR | 3.45 | 2.24 | 0.65 |  |  | 1 | 0.64 | 2.24 |  |  |  | 3.45+/−2.90% | 0.64 | 160-174
5 | ALCALASE ®: ALCALASE® enzyme, commercially available from Novo, Swissprot accession number P00780 (protein, UniProt P00780 106-379, looked up) Subtilisin Carlsberg: AQTVPYGIPLIKADKVQAQGFKGANVKVAVLDTGIQASHPDLNVVGGASFVAGEAYNTDGNGHGTHVAGTVAALDNTTGVLGVAPSVSLYAVKVLNSSGSGSYSGIVSGIEWATTNGMDVINMSLGGASGSTAMKQAVDNAYAKGVVVVAAAGNSGSSGNTNTIGYPAKYDSVIAVGAVDSNSNRASFSSVGAELEVMAPGAGVYSTYPTNTYATLNGTSMASPHVAGAAALILSKHPNLSASQVRNRLSSTATYLGSSFYYGKGLINVEAAAQ | 2.35 | 2.16 | 0.72 |  |  | 1 | 0.72 | 2.16 |  |  |  | 2.35% | 0.72 | 19-33
